Usually stoichiometry N stands for the number of molecules, sites or subunits per partner or assembly.

Common to all, as to experiment: negative-stain EM
The target in test [1] is H1 GCN4 (NL09 HA, GCN4-trimerized) (influenza A virus A/Netherlands/602/2009(H1N1)).
Test [2] has as its target H2/1 GCN4 (SG57 head, PR8 stalk, GCN4-trimerized) (influenza A virus A/Puerto Rico/8/34/Mount Sinai(H1N1) | influenza A virus A/Singapore/1/1957(H2N2)).
Test [3] addresses H1/1 GCN4 (NL09 head, PR8 stalk, GCN4-trimerized) (influenza A virus A/Puerto Rico/8/34/Mount Sinai(H1N1) | influenza A virus A/Netherlands/602/2009(H1N1)).
Test [4] has as its target H5/1 GCN4 (IN05 head, PR8 stalk, GCN4-trimerized) (influenza A virus A/Puerto Rico/8/34/Mount Sinai(H1N1) | influenza A virus A/Indonesia/5/2005(H5N1)).

CR9114 Fab: the stoichiometry N (Fabs per trimer) in test [1], in test [2], in test [3] and in test [4] was 3 throughout.

As for “H1/1 GCN4 (NL09 head, PR8 stalk, GCN4-trimerized) (domain or fragment)”, the stoichiometry N in test [3] worked out at 3.
